Consider 5 molecules from article PMC5286394, “Architecture of the yeast Elongator complex” (EMBO Reports, 2016).

Sequences and labels used below:
T1: GST-tagged full-length Elp1 (S. cerevisiae, UniProt Q06706 1-1349)
T1 construct: Elp1, Elongator subunit 1, S. cerevisiae; also called GST-Elp1; source: E. coli BL21 pSarRare, purified (NiNTA, S200 gel filtration); not shown: His6, N-terminal, kept; GST, N-terminal, kept
T1 sequence (looked up): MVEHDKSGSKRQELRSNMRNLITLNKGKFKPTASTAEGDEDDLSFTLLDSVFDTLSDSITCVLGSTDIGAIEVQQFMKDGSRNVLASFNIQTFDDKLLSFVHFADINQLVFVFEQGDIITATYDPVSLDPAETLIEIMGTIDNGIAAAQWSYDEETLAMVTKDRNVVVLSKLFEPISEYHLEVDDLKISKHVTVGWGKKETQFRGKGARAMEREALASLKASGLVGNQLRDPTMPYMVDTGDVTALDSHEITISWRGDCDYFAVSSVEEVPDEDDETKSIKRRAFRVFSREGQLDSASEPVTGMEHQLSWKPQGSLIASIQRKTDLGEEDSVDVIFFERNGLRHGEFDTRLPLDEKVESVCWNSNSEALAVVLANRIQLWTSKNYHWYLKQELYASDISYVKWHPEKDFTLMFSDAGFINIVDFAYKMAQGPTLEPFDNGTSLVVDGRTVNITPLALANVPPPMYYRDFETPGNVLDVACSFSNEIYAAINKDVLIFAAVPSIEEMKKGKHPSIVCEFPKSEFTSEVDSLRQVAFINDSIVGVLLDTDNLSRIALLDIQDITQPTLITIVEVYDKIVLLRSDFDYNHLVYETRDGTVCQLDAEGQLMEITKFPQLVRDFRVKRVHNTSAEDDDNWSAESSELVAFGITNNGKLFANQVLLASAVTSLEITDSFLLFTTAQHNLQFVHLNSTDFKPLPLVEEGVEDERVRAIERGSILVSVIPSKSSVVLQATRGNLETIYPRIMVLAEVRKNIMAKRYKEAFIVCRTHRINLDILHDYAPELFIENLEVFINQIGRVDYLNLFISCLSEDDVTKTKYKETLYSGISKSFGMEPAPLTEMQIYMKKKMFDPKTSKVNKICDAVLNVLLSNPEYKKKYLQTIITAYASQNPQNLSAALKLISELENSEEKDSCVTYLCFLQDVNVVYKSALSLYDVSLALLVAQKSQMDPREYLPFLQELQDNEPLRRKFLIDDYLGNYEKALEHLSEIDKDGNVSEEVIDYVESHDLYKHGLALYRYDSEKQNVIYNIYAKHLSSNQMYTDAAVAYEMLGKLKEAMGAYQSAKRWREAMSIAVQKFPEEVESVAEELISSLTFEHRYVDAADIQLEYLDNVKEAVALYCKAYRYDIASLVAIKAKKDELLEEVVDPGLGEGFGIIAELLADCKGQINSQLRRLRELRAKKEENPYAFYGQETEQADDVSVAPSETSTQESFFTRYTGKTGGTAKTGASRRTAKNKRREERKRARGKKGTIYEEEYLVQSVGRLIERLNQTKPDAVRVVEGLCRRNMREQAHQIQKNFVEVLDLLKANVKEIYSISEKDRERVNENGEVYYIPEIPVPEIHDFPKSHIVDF

T2: endogenously TAP-tagged Elp1 (S. cerevisiae (endogenous in strain …, UniProt Q06706 1-1349))
T2 construct: Elp1, S. cerevisiae, endogenous protein with TAP tag (Elp1-TAP::TRP1); also called Elp1-TAP
T2 sequence (looked up): T1 sequence (looked up)

T3: purified N-terminal region of Elp1 (S. cerevisiae)
T3 chain: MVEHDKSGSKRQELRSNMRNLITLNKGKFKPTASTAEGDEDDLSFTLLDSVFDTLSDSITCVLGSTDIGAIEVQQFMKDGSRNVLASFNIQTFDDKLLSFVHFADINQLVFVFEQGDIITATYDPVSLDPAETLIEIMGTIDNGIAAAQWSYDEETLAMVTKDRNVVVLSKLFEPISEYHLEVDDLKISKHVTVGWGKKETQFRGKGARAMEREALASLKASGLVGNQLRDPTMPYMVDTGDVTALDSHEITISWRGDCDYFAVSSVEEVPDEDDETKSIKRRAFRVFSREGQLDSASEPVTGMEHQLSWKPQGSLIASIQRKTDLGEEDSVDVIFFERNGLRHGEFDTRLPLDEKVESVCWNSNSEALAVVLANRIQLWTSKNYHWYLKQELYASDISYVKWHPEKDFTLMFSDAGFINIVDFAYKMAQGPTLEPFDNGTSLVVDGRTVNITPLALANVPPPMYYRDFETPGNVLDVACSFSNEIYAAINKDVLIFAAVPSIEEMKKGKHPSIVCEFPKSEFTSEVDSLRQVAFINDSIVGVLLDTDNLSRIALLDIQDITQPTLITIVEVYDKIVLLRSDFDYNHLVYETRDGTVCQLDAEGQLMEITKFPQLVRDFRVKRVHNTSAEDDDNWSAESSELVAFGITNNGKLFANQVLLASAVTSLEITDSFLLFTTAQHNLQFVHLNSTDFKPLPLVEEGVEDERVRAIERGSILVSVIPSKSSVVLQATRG

B1: Full-length His6-tagged ScElp3, refolded and anaerobically reconstituted (enzyme, S. cerevisiae, UniProt Q02908 1-557, looked up)
chain: MARHGKGPKTNKKKLAPEKERFIQCCADITLELTDSLTSGTTREINLNGLITKYSKKYKLKQQPRLTDIINSIPDQYKKYLLPKLKAKPVRTASGIAVVAVMCKPHRCPHIAYTGNICVYCPGGPDSDFEYSTQSYTGYEPTSMRAIRARYDPYEQARGRVEQLKQLGHSIDKVEYVLMGGTFMSLPKEYREDFIVKLHNALSGFNGNDIDEAILYSQQSLTKCVGITIETRPDYCTQTHLDDMLKYGCTRLEIGVQSLYEDVARDTNRGHTVRSVCETFAVSKDAGYKVVSHMMPDLPNVGMERDIEQFKEYFENPDFRTDGLKIYPTLVIRGTGLYELWKTGRYKSYSANALVDLVARILALVPPWTRIYRVQRDIPMPLVTSGVDNGNLRELALARMKDLGTTCRDVRTREVGIQEVHHKVQPDQVELIRRDYYANGGWETFLSYEDPKKDILIGLLRLRKASKKYTYRKEFTSQRTSIVRELHVYGSVVPLHSRDPRKFQHQGFGTLLMEEAERIAKEEHGSEKISVISGVGVRNYYGKLGYELDGPYMSKRI
notes: Elp3, Elongator subunit 3, S. cerevisiae; Carries a reconstituted Fe/S cluster; also called ScElp3H6
B2: endogenous Elp3 (enzyme, UniProt Q02908 1-557, looked up)
chain: B1 chain
notes: Elp3, S. cerevisiae, endogenous protein; source: endogenous, S. cerevisiae strains BS1173 and BSY2369, co-purified with Elp1-TAP or Elp6-TAP
B3: endogenous Elp4 (natural protein, UniProt Q02884 1-456, looked up)
chain: MSFRKRGEILNDRGSGLRGPLLRGPPRTSSTPLRTGNRRAPGNVPLSDTTARLKKLNIADESKTKMGLDSSHVGVRPSPATSQPTTSTGSADLDSILGHMGLPLGNSVLVEEQSTTEFHSILGKLFAAQGIVHNRISDSSADKTRNGDTHVIVLSLNQMFAKELPGIYKGSRKQMKKNLISEEESKVTVQNLNETQRSTPSRYKDLKIAWKYKLADEKRLGSPDRDDIQQNSEYKDYNHQFDITTRLMPAPIASELTFIAPTQPVSTILSQIEQTIKRNDKKLIRIVIPSLLHPAMYPPKMFESSEIIGLMHGVRSLVKKYYERVVLFASISIDIITPPLLVLLRNMFDSVINLEPFNQEMTEFLERVYKSQPGKIQHGLVHILKLPVFTDRGEMRVLKSEWAFKNGRKKFEIEQWGIPVDDAEGSAASEQSHSHSHSDEISHNIPAKKTKISLDY
notes: Elp4, S. cerevisiae, endogenous protein; source: endogenous, S. cerevisiae strains BS1173 and BSY2369, co-purified with Elp1-TAP or Elp6-TAP
B4: synthetic peptide of the conserved N-terminal region of Elp4 (aa1–10) (peptide, UniProt Q02884 1-10, looked up)
peptide: MSFRKRGEIL
notes: Elp4, S. cerevisiae, residues 1–10; source: synthetic peptide (Peptide Specialty Laboratories, Germany)
B5: synthetic peptide of the conserved N-terminal region of Elp4 (aa1–27) (peptide, UniProt Q02884 1-27, looked up)
peptide: MSFRKRGEILNDRGSGLRGPLLRGPPR
notes: Elp4, S. cerevisiae, residues 1–27; source: synthetic peptide (Peptide Specialty Laboratories, Germany)

Experiment [1] concerns the target T1, GST-tagged full-length Elp1. Briefly: pull-down; GST pull-down: 20 μg GST-tagged protein and increasing amounts of untagged partner with glutathione Sepharose, 2 h at 4°C, 20 mM Tris pH 7.5, 150 mM NaCl, 5 mM DTT, 0.1% Tween-20; five washes; SDS–PAGE, Coomassie. The following applies: both partners purified.
In experiment [2] the target is T2, endogenously TAP-tagged Elp1. The experiment can be described thus: tandem-affinity purification (SDS–PAGE); endogenous TAP-tagged bait from yeast lysate; IgG Sepharose, TEV elution, Calmodulin Sepharose, EGTA elution; HEPES pH 7.9, 125 mM NaCl. To be noted: partners not purified.
The experiment “endogenous Elp3” addresses B2. The experiment can be described thus: cross-linking; XL-MS of purified Elongator (Elp1-TAP sample, 1 mg/ml) with isotope-coded DSS or DSG, 0.5–2 mM, 30 min at 37°C; xQuest/xProphet, ld score at least 30. To be noted: both partners purified.
For experiment [3], the target named is T3, purified N-terminal region of Elp1. Briefly: ITC; VP-ITC; 20 mM Tris–HCl pH 7.5, 150 mM NaCl, 2 mM β-mercaptoethanol; 10 μM in the cell, 100 μM in the syringe. The following applies: both partners purified. On the technique in general: In ITC the heat of successive injections is recorded.

Consider B1, for which, in experiment [1], the binding result is “binds”.
With B2, the binding result in experiment [2] is listed as “binds”.
As for B3, the binding result (in experiment [2]; with endogenous Elp3) was “binds” each time.
Usually Kd stands for the equilibrium constant for the complex coming apart. Low readings indicate tighter binding, high ones weaker binding. In experiment [3], B4 came in with a Kd of 2700 ± 300 nM.
Still for that read-out and setting: as for B5, the figure is 1600 ± 400 nM.
